Patent EP4818209A2 (Primatope Therapeutics Inc., dated 2026)

Target: T1, recombinant human CD40 (human, UniProt P25942 21-120, limits assumed)
T1 construct: biotinylated there; also called hCD40; purified CD40
Assay: binding kinetics to human CD40

T1 sequence (P25942 21-120 limits assumed): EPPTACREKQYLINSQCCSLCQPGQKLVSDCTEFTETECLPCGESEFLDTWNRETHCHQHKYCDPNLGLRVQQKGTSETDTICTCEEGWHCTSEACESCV

- fold difference of affinity against murine 2C10: ≤ 2 fold
B1: humanized 2C10 antibody, Clone 2.189.2 (2C10_h3 + 2C10_l2) (antibody, V domains shown)
VH: QVQLVQSGAEVKKPGASVKVSCKASGYTFTNYWMHWVRQAPGQRLEWIGYINPSNDYTKYNQKFKDRATLTADKSANTAYMELSSLRSEDTAVYYCARQGFPYWGQGTLVTVSS
VL: EIVLTQSPATLSLSPGERATLSCSASSSVSYMHWYQQKPGQAPRRWIYDTSKLASGVPARFSGSGSGTDYTLTISSLEPEDFAVYYCHQLSSDPFTFGGGTKVEIK
notes: also called h2C10; mAb 2.189.2
